The record followed here is patent publication US20220275350A1 (MAX PLANCK GESELLSCHAFT ZUR F RDERUNG DER WISSENSCHAFTEN E V, published 2022).

The assay deals with T1, cpHaloΔ9mer.
T1 construct: also called cpHalo_9mer; cpHalo156-141
Nature of the assay: ITC; 9mer peptide (~30 mM) titrated into 0.6 mM cpHaloΔ9mer; three independent measurements; one-site model. (In ITC the heat of successive injections is recorded.)

T1 sequence (chain, as listed by the source mutant): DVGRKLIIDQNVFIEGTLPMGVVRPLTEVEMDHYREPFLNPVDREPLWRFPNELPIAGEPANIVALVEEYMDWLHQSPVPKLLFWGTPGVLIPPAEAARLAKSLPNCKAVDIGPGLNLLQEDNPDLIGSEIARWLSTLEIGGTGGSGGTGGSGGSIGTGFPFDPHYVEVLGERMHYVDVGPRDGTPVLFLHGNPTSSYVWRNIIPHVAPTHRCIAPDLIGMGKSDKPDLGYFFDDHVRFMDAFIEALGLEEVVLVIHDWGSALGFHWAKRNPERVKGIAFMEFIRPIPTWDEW
Protocol: Heat of dilution of the peptide was subtracted prior to the analysis. Kd was calculated from three independent measurements, error represents standard deviation.
This maximal concentration of peptide was titrated against a 0.6 mM cpHaloΔ9mer (FIG. 1).

B1: 9mer peptide (peptide)
peptide: ARETFQAFR
notes: Free peptide titrated in the ITC assay; also called PEP1
As a reminder, the Kd is the concentration at which binding is half-saturated. Lower therefore signals tighter binding. In turn, B1 gave a dissociation constant Kd of 5.3 mM.
